Reference: patent publication US9296810 (Novartis, dated 2016)
Substitutions are numbered along the chain they refer to.

Biological target: T1, hen egg white lysozyme (hen, UniProt P00698 19-147, biotinylated (HEL-b); sites not stated)
T1 construct: also called lyzozyme; HEL-b (biotinylated)
Test: yeast display selection

T1 sequence (P00698 19-147 limits assumed): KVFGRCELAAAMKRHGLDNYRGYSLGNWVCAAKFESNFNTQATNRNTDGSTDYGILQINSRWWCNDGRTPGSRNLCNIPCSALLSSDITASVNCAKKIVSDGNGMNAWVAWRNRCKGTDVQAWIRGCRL

B1: SEQ ID NO 88 (designed binder)
chain: VSDVPRDLEVVAATPTSLLISWDAPAVTVRYYRITYGESSSSRRQEFTVPGSKSTATISGEESYVDYTITVYAVTGRGESPASSKPISINYAEER
  binding result: binds

B2: SEQ ID NO 109 (designed binder)
chain: VSDVPRDLEVVAATTTSLLISWDAPAVTVRYYRITYGESGRGAQEFTVPGSKSTATISGLGPPVDYTITVYAVTGRGESPASSKPISINYRSQH
  binding result: binds

B3: SEQ ID NO 112 (designed binder)
chain: VSDVPRDLEVVAATPTSLLISWDAPAVTVRYYRITYGEQYYHQGRRQEFTVPGSKSTATISRYGGSVDYTITVYAVTGRGESPASSKPISINYYAYG
  binding result: binds

B4: SEQ ID NO 90 (designed binder)
chain: VSDVPRDLEVVAATPTSLLISWDAPAVTVRYYRITYGEGERPYQEFTVPGSKSTATISYAHYSVDYTITVYAVTGRGESPASSKPISINYERRS
  binding result: binds

B5: SEQ ID NO 93 (designed binder)
chain: B4 chain with G39Y, E40P, P42E, Y59R, A60Y, H61G, S63H, E91S, R92G, R93Y
  binding result: binds

B6: SEQ ID NO 108 (designed binder)
chain: B4 chain with G39P, E40R, P42R, Y59P, A60G, H61G, Y62Q, E91G, R93G, S94Y
  binding result: binds

B7: SEQ ID NO 100 (designed binder)
chain: VSDVPRDLEVVAATPTSLLISWDAPAVTVRYYRITYGEEEEHPQEFTVPGSKSTATISSPQRGVDYTITVYAVTGRGESPASSKPISINYYSYY
  binding result: binds

B8: SEQ ID NO 102 (designed binder)
chain: B7 chain with E39Y, E40G, E41A, H42L, P43E, S59R, P60S, R62A, G63E, Y91A
  binding result: binds

B9: SEQ ID NO 107 (designed binder)
chain: B7 chain with E39S, E40G, E41R, H42R, P43G, Q61S, R62L, G63E, Y91R, Y93G
  binding result: binds

B10: SEQ ID NO 116 (designed binder)
chain: VSDVPRDLEVVAATPTSLLISWDAPTVTVRYYRITYGEPQASHRPYQEFTVPGSKSTATISSRSQSVDYTITVYAVTGRGESPASSKPISINYLREL
  binding result: binds

B11: SEQ ID NO 113 (designed binder)
chain: VSDVPRDLEVVAATPTSLLISWDAPAVTVRYYRITYGERRGQYGSSQEFTVPGSKSTATISSPEGSVDYTITVYAVTGRGESPASSKPISINYSRSE
  binding result: binds

B12: SEQ ID NO 98 (designed binder)
chain: VSDVPRDLEVVAATPTSLLISWDAPAVTVRYYRITYGERSSRSQEFTVPGSKSTATISHSREPVDYTITVYAVTGRGESPASSKPISINYQYRY
  binding result: binds

B13: SEQ ID NO 99 (designed binder)
chain: B12 chain with R39S, S40Q, R42H, S60P, R61S, E62R, Q91P, Y92R, R93S, Y94E
  binding result: binds

B14: SEQ ID NO 101 (designed binder)
chain: B12 chain with R39E, S43P, H59Q, S60A, E62A, P63R, Q91R, Y92R, R93Y, Y94R
  binding result: binds

B15: SEQ ID NO 106 (designed binder)
chain: B12 chain with R39S, S40G, S41Y, S43Y, H59G, S60Y, P63H, Y92E, R93S
  binding result: binds

B16: SEQ ID NO 110 (designed binder)
chain: VSDVPRDLEVVAATPTSLLISWDAPAVTVRYYRITYGESSGYAERGQEFTVPGSKSTATISSPGARVDYTITVYAVTGRGESPASSKPISINYSSLG
  binding result: binds

B17: SEQ ID NO 95 (designed binder)
chain: VSDVPRDLEVVAATPTSLLISWDAPAVTVRYYRITYGEYEYARQEFTVPGSKSTATISRLYRRVDYTITVYAVTGRGESPASSKPISINYYRSA
  binding result: binds

B18: SEQ ID NO 96 (designed binder)
chain: B17 chain with E40H, A42S, R43E, R59Y, L60Y, Y61E, R62P, Y91H, R92S, A94R
  binding result: binds

B19: SEQ ID NO 92 (designed binder)
chain: B17 chain with Y41R, A42Y, R59S, L60Q, Y61S, R63Y, Y91G, S93P
  binding result: binds

B20: SEQ ID NO 97 (designed binder)
chain: B17 chain with Y39Q, E40R, A42L, R59S, L60R, Y61S, R62A, Y91P, R92Y
  binding result: binds

B21: SEQ ID NO 91 (designed binder)
chain: VSDVPRDLEVVAATPTSLLISWDAPAVTVRYYRITYGEYQRSRQEFTVPGSKSTATISSYGGYVDYTITVYAVTGRGESPASSKPISINYRSLR
  binding result: binds

B22: SEQ ID NO 103 (designed binder)
chain: VSDVPRDLEVVAATPTSLLISWDAPAVTVRYYRITYGESREGGQEFTVPGSKSTATISSYQSEVDYTITVYAVTGRGESPASSKPISINYARSR
  binding result: binds

B23: SEQ ID NO 105 (designed binder)
chain: B22 chain with S39G, E41R, G42Y, S59E, Y60L, Q61L, A91S, R92L, S93R, R94Y
  binding result: binds

B24: SEQ ID NO 104 (designed binder)
chain: B22 chain with S39G, R40Q, E41Q, S59A, Q61R, S62G, E63P, A91Y, R92G, R94Y
  binding result: binds

B25: SEQ ID NO 111 (designed binder)
chain: VSDVPRDLEVVAATPTSLLISWDAPAVTVRYYRITYGESEGGSSRSQEFTVPGSKSTATISRSYQPVDYTITVYAVTGRGESPASSKPISINYGSYP
  binding result: binds

B26: SEQ ID NO 87 (designed binder)
chain: VSDVPRDLEVVAATPTSLLISWDAPAVTVRYYRITYGEAYGESYQEFTVPGSKSTATISQSPEYVDYTITVYAVTGRGESPASSKPISINYASEY
  binding result: binds

B27: SEQ ID NO 114 (designed binder)
chain: VSDVPRDLEVVAATPTSLLISWDAPAVTVRYYRITYGEQRYSYYGQQEFTVPGSKSTATISSGRSSVDYTITVYAVTGRGESPASSKPISINYRRSY
  binding result: binds

B28: SEQ ID NO 115 (designed binder)
chain: B27 chain with Q39R, R40P, Y41A, Y44R, G45A, Q46A, G63Y, R64S, S65Y, Y97G
  binding result: binds

B29: SEQ ID NO 94 (designed binder)
chain: VSDVPRDLEVVAATPTSLLISWDAPAVTVRYYRITYGEYEHYYQEFTVPGSKSTATISPYAGGVDYTITVYAVTGRGESPASSKPISINYSESE
  binding result: binds

B30: SEQ ID NO 89 (designed binder)
chain: VSDVPRDLEVVAATPTSLLISWDAPAVTVRYYRITYGEGRHPSYQEFTVPGSKSTATISPSYSRVDYTITVYAVTGRGESPASSKPISINYSRER
  binding result: binds
